Among the data in ChEMBL document CHEMBL1144764, “A molecular modeling study of the interaction of 2'-fluoro-substituted analogues of dUMP/FdUMP with thymidylate synthase” (Bioorg Med Chem Lett, 2008) are Km values, retold here.

Substrate in series [1]: O=c1ccn([C@@H]2O[C@H](COP(=O)(O)O)[C@@H](O)[C@H]2F)c(=O)[nH]1
The following applies: Homo sapiens.
Description: (§1) Activity at human recombinant thymidylate synthase

Substrate in series [2]: O=c1ccn([C@H]2C[C@H](O)[C@@H](COP(=O)(O)O)O2)c(=O)[nH]1
Description: as §1
The settings on record: Homo sapiens.

B1: Thymidylate synthase (Homo sapiens), P04818 (protein)
chain: MPVAGSELPRRPLPPAAQERDAEPRPPHGELQYLGQIQHILRCGVRKDDRTGTGTLSVFGMQARYSLRDEFPLLTTKRVFWKGVLEELLWFIKGSTNAKELSSKGVKIWDANGSRDFLDSLGFSTREEGDLGPVYGFQWRHFGAEYRDMESDYSGQGVDQLQRVIDTIKTNPDDRRIIMCAWNPRDLPLMALPPCHALCQFYVVNSELSCQLYQRSGDMGLGVPFNIASYALLTYMIAHITGLKPGDFIHTLGDAHIYLNHIEPLKIQLQREPRPFPKLRILRKVEKIDDFKAEDFQIEGYNPHPTIKMEMAV
The term Km denotes the concentration of substrate that gives half-maximal velocity. On to B1, for which the Km came out at 12.2 µM in series [1] and 5.25 µM in series [2].
